Measurements: patent US20180155451A1 (published 2018)

T1: FcγRIIb extracellular domain with C-terminal His tag (human, UniProt P31994 43-217)
T1 construct: extracellular domain; also called FcgRIIb; 2b; not shown: His tag at the C terminus
T1 sequence (looked up): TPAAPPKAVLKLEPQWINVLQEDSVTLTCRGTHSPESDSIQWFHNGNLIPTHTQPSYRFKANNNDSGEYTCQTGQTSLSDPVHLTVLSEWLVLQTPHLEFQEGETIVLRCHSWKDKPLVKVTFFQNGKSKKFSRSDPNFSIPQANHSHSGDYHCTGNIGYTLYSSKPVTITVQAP

B1: GpH7-A5/GpH7-B3 variant G237_05P/GpL16-k0 (heterodimerized antibody, He Ab) (antibody, human IgG1, kappa)
heavy 1: not shown
heavy 2: not shown
light: DIVMTQSPLSLPVTPGEPASISCQASESLVHSNRNTYLHWYLQKPGQSPQLLIYKVSNRFSGVPDRFSGSGSGTDFTLKISRVEAEDVGVYYCSQNTHVPPTFGQGTKVEIERTVAAPSVFIFPPSDEQLKSGTASVVCLLNNFYPREAKVQWKVDNALQSGNSQESVTEQDSKDSTYSLSSTLTLSKADYEKHKVYACEVTHQGLSSPVTKSFNRGEC
notes: Anti-glypican-3 IgG1; the alteration is in the GpH7-B3 chain only; also called G237P
B2: GpH7-A5/GpH7-B3 variant G237_13S/GpL16-k0 (heterodimerized antibody, He Ab) (antibody, human IgG1, kappa)
heavy 1: not shown
heavy 2: not shown
light: DIVMTQSPLSLPVTPGEPASISCQASESLVHSNRNTYLHWYLQKPGQSPQLLIYKVSNRFSGVPDRFSGSGSGTDFTLKISRVEAEDVGVYYCSQNTHVPPTFGQGTKVEIERTVAAPSVFIFPPSDEQLKSGTASVVCLLNNFYPREAKVQWKVDNALQSGNSQESVTEQDSKDSTYSLSSTLTLSKADYEKHKVYACEVTHQGLSSPVTKSFNRGEC
notes: Anti-glypican-3 IgG1; the alteration is in the GpH7-B3 chain only; also called G237S
B3: GpH7-A5/GpH7-B3 variant G237_08L/GpL16-k0 (heterodimerized antibody, He Ab) (antibody, human IgG1, kappa)
heavy 1: not shown
heavy 2: not shown
light: DIVMTQSPLSLPVTPGEPASISCQASESLVHSNRNTYLHWYLQKPGQSPQLLIYKVSNRFSGVPDRFSGSGSGTDFTLKISRVEAEDVGVYYCSQNTHVPPTFGQGTKVEIERTVAAPSVFIFPPSDEQLKSGTASVVCLLNNFYPREAKVQWKVDNALQSGNSQESVTEQDSKDSTYSLSSTLTLSKADYEKHKVYACEVTHQGLSSPVTKSFNRGEC
notes: Anti-glypican-3 IgG1; the alteration is in the GpH7-B3 chain only; also called G237L
B4: GpH7-A5/GpH7-B3 variant G236_18N/GpL16-k0 (heterodimerized antibody, He Ab) (antibody, human IgG1, kappa)
heavy 1: not shown
heavy 2: not shown
light: DIVMTQSPLSLPVTPGEPASISCQASESLVHSNRNTYLHWYLQKPGQSPQLLIYKVSNRFSGVPDRFSGSGSGTDFTLKISRVEAEDVGVYYCSQNTHVPPTFGQGTKVEIERTVAAPSVFIFPPSDEQLKSGTASVVCLLNNFYPREAKVQWKVDNALQSGNSQESVTEQDSKDSTYSLSSTLTLSKADYEKHKVYACEVTHQGLSSPVTKSFNRGEC
notes: Anti-glypican-3 IgG1; the alteration is in the GpH7-B3 chain only; also called G236N
B5: GpH7-A5/GpH7-B3 variant G237_04F/GpL16-k0 (heterodimerized antibody, He Ab) (antibody, human IgG1, kappa)
heavy 1: not shown
heavy 2: not shown
light: DIVMTQSPLSLPVTPGEPASISCQASESLVHSNRNTYLHWYLQKPGQSPQLLIYKVSNRFSGVPDRFSGSGSGTDFTLKISRVEAEDVGVYYCSQNTHVPPTFGQGTKVEIERTVAAPSVFIFPPSDEQLKSGTASVVCLLNNFYPREAKVQWKVDNALQSGNSQESVTEQDSKDSTYSLSSTLTLSKADYEKHKVYACEVTHQGLSSPVTKSFNRGEC
notes: Anti-glypican-3 IgG1; the alteration is in the GpH7-B3 chain only; also called G237F
B6: GpH7-A5/GpH7-B3 variant G236_11K/GpL16-k0 (heterodimerized antibody, He Ab) (antibody, human IgG1, kappa)
heavy 1: not shown
heavy 2: not shown
light: DIVMTQSPLSLPVTPGEPASISCQASESLVHSNRNTYLHWYLQKPGQSPQLLIYKVSNRFSGVPDRFSGSGSGTDFTLKISRVEAEDVGVYYCSQNTHVPPTFGQGTKVEIERTVAAPSVFIFPPSDEQLKSGTASVVCLLNNFYPREAKVQWKVDNALQSGNSQESVTEQDSKDSTYSLSSTLTLSKADYEKHKVYACEVTHQGLSSPVTKSFNRGEC
notes: Anti-glypican-3 IgG1; the alteration is in the GpH7-B3 chain only; also called G236K
B7: GpH7-A5/GpH7-B3 variant G236_09D/GpL16-k0 (heterodimerized antibody, He Ab) (antibody, human IgG1, kappa)
heavy 1: not shown
heavy 2: not shown
light: DIVMTQSPLSLPVTPGEPASISCQASESLVHSNRNTYLHWYLQKPGQSPQLLIYKVSNRFSGVPDRFSGSGSGTDFTLKISRVEAEDVGVYYCSQNTHVPPTFGQGTKVEIERTVAAPSVFIFPPSDEQLKSGTASVVCLLNNFYPREAKVQWKVDNALQSGNSQESVTEQDSKDSTYSLSSTLTLSKADYEKHKVYACEVTHQGLSSPVTKSFNRGEC
notes: Anti-glypican-3 IgG1; the alteration is in the GpH7-B3 chain only; also called G236D
B8: GpH7-A5/GpH7-B3 variant G237_16H/GpL16-k0 (heterodimerized antibody, He Ab) (antibody, human IgG1, kappa)
heavy 1: not shown
heavy 2: not shown
light: DIVMTQSPLSLPVTPGEPASISCQASESLVHSNRNTYLHWYLQKPGQSPQLLIYKVSNRFSGVPDRFSGSGSGTDFTLKISRVEAEDVGVYYCSQNTHVPPTFGQGTKVEIERTVAAPSVFIFPPSDEQLKSGTASVVCLLNNFYPREAKVQWKVDNALQSGNSQESVTEQDSKDSTYSLSSTLTLSKADYEKHKVYACEVTHQGLSSPVTKSFNRGEC
notes: Anti-glypican-3 IgG1; the alteration is in the GpH7-B3 chain only; also called G237H
B9: GpH7-A5/GpH7-B3 variant G236_13S/GpL16-k0 (heterodimerized antibody, He Ab) (antibody, human IgG1, kappa)
heavy 1: not shown
heavy 2: not shown
light: DIVMTQSPLSLPVTPGEPASISCQASESLVHSNRNTYLHWYLQKPGQSPQLLIYKVSNRFSGVPDRFSGSGSGTDFTLKISRVEAEDVGVYYCSQNTHVPPTFGQGTKVEIERTVAAPSVFIFPPSDEQLKSGTASVVCLLNNFYPREAKVQWKVDNALQSGNSQESVTEQDSKDSTYSLSSTLTLSKADYEKHKVYACEVTHQGLSSPVTKSFNRGEC
notes: Anti-glypican-3 IgG1; the alteration is in the GpH7-B3 chain only; also called G236S

Legend:
[1] = biological target: T1, FcγRIIb extracellular domain with …; assay: SPR (Biacore), captured antibody, FcγR as analyte; relative to GpH7-A5/GpH7-B3/GpL16-k0 = 100
Method: (§1) Analysis of interaction between objective antibody and the FcγR was carried out using Biacore T100 (GE Healthcare). HBS-EP+ (GE Healthcare) was used as the running buffer, and the measurement temperature was set to 25° C. Chips produced by immobilizing the antigen peptide by the amine coupling method to a Series S Sencor Chip CM5 (GE Healthcare), or alternatively, chips produced by allowing preliminarily biotinylated antigen peptides to interact with and immobilize onto a Series S Sensor Chip SA (certified) (GE Healthcare) were used. Antibodies of interest were captured onto an antigen peptide-immobilized chip, and allowed to interact to each FcγR diluted with running buffer. To regenerate and repeatedly use the chip, the antibodies captured on the chip were washed off by reacting 10 mM glycine-HCl, pH 1.5.
(§2) The FcγR-binding activity of each antibody was assessed primarily using as an indicator the FcγR-binding activity and dissociation constant for FcγR.

[2] = biological target: T2, FcγRIIIa extracellular domain with C-terminal His tag (human, UniProt P08637 17-208); assay: as above
T2 construct: extracellular domain; also called FcgRIIIa; 3a; not shown: His tag at the C terminus
T2 sequence (P08637 17-208): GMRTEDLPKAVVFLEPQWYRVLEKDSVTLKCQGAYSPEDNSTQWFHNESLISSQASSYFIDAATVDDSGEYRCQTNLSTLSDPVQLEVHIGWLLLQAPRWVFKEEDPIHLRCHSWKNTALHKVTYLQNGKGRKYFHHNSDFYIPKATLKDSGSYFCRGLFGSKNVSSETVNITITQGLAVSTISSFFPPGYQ
Method: as §1, §2

Binder | He/Con_2b (IIb binding) [1] | He/Con_3a (IIIa binding) [2]
B1 | 24.6 % of HeCon Ab | 10.9 % of HeCon Ab
B2 | 111 % of HeCon Ab | 38.4 % of HeCon Ab
B3 | 148 % of HeCon Ab | 24.9 % of HeCon Ab
B4 | 96.4 % of HeCon Ab | 37.8 % of HeCon Ab
B5 | 149 % of HeCon Ab | 25.3 % of HeCon Ab
B6 | 49.8 % of HeCon Ab | 18.6 % of HeCon Ab
B7 | 167 % of HeCon Ab | 71.2 % of HeCon Ab
B8 | 55.2 % of HeCon Ab | 17.2 % of HeCon Ab
B9 | 96.7 % of HeCon Ab | 64.8 % of HeCon Ab
